The values below come from patent US20150344570A1 (published 2015).

B1: GpH7-B3 variant Y296_19Q/GpL16-k0 (homodimerized antibody, Ho Ab) (antibody, human IgG1, kappa)
heavy: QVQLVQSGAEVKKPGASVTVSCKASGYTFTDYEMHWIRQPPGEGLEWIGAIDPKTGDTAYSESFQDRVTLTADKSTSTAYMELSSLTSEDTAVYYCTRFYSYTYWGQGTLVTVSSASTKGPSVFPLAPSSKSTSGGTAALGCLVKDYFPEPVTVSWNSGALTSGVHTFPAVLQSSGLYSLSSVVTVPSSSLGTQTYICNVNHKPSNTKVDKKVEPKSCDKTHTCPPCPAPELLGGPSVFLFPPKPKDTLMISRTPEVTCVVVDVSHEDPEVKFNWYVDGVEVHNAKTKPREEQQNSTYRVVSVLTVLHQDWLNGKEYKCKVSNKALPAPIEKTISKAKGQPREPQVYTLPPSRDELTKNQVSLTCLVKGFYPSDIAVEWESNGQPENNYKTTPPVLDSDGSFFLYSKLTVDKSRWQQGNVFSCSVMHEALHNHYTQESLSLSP
light: DIVMTQSPLSLPVTPGEPASISCQASESLVHSNRNTYLHWYLQKPGQSPQLLIYKVSNRFSGVPDRFSGSGSGTDFTLKISRVEAEDVGVYYCSQNTHVPPTFGQGTKVEIERTVAAPSVFIFPPSDEQLKSGTASVVCLLNNFYPREAKVQWKVDNALQSGNSQESVTEQDSKDSTYSLSSTLTLSKADYEKHKVYACEVTHQGLSSPVTKSFNRGEC
notes: Anti-glypican-3 IgG1 (G1d with K439E); same alteration in both H chains
B2: GpH7-B3 variant Y300_06M/GpL16-k0 (homodimerized antibody, Ho Ab) (antibody, human IgG1, kappa)
heavy: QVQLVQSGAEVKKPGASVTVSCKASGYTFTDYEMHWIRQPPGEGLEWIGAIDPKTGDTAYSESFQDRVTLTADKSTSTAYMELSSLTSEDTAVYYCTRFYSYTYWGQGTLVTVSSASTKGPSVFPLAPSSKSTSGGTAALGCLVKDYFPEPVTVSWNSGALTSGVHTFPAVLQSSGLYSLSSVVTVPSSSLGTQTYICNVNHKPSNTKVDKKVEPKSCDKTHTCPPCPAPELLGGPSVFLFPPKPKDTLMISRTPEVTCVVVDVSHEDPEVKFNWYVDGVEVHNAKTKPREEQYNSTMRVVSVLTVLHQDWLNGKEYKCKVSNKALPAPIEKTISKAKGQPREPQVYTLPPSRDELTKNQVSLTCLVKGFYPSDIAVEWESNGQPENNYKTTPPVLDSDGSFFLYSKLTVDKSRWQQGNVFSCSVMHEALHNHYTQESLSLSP
light: DIVMTQSPLSLPVTPGEPASISCQASESLVHSNRNTYLHWYLQKPGQSPQLLIYKVSNRFSGVPDRFSGSGSGTDFTLKISRVEAEDVGVYYCSQNTHVPPTFGQGTKVEIERTVAAPSVFIFPPSDEQLKSGTASVVCLLNNFYPREAKVQWKVDNALQSGNSQESVTEQDSKDSTYSLSSTLTLSKADYEKHKVYACEVTHQGLSSPVTKSFNRGEC
notes: as for B1
B3: GpH7-B3 variant Y300_13S/GpL16-k0 (homodimerized antibody, Ho Ab) (antibody, human IgG1, kappa)
heavy: not shown
light: DIVMTQSPLSLPVTPGEPASISCQASESLVHSNRNTYLHWYLQKPGQSPQLLIYKVSNRFSGVPDRFSGSGSGTDFTLKISRVEAEDVGVYYCSQNTHVPPTFGQGTKVEIERTVAAPSVFIFPPSDEQLKSGTASVVCLLNNFYPREAKVQWKVDNALQSGNSQESVTEQDSKDSTYSLSSTLTLSKADYEKHKVYACEVTHQGLSSPVTKSFNRGEC
notes: as for B1
B4: GpH7-B3 variant Y300_19Q/GpL16-k0 (homodimerized antibody, Ho Ab) (antibody, human IgG1, kappa)
heavy: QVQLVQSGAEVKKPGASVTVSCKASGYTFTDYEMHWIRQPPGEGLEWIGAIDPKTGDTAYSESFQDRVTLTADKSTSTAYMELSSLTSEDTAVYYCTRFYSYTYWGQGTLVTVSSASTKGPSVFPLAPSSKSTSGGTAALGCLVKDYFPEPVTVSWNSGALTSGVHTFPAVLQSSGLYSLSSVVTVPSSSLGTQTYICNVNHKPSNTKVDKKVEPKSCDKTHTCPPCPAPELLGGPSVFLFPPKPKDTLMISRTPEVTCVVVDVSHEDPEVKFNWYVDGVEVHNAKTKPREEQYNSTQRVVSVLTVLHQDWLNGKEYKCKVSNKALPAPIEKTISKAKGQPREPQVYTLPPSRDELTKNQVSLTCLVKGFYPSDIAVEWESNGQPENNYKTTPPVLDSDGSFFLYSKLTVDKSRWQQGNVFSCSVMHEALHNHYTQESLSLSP
light: DIVMTQSPLSLPVTPGEPASISCQASESLVHSNRNTYLHWYLQKPGQSPQLLIYKVSNRFSGVPDRFSGSGSGTDFTLKISRVEAEDVGVYYCSQNTHVPPTFGQGTKVEIERTVAAPSVFIFPPSDEQLKSGTASVVCLLNNFYPREAKVQWKVDNALQSGNSQESVTEQDSKDSTYSLSSTLTLSKADYEKHKVYACEVTHQGLSSPVTKSFNRGEC
notes: as for B1
B5: GpH7-B3 variant Y300_14T/GpL16-k0 (homodimerized antibody, Ho Ab) (antibody, human IgG1, kappa)
heavy: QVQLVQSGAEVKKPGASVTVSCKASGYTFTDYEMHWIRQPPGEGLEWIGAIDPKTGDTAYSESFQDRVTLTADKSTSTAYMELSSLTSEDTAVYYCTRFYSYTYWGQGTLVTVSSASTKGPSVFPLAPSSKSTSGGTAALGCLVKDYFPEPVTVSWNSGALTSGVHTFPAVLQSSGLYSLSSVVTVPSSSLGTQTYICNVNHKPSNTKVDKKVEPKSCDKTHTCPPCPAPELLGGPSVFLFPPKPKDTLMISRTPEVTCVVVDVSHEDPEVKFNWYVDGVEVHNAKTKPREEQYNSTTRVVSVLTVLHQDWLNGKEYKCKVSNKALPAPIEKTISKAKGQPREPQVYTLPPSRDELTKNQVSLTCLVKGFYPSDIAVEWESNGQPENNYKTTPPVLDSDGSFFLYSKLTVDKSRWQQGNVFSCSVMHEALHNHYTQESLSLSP
light: DIVMTQSPLSLPVTPGEPASISCQASESLVHSNRNTYLHWYLQKPGQSPQLLIYKVSNRFSGVPDRFSGSGSGTDFTLKISRVEAEDVGVYYCSQNTHVPPTFGQGTKVEIERTVAAPSVFIFPPSDEQLKSGTASVVCLLNNFYPREAKVQWKVDNALQSGNSQESVTEQDSKDSTYSLSSTLTLSKADYEKHKVYACEVTHQGLSSPVTKSFNRGEC
notes: as for B1
B6: GpH7-B3 variant Y300_02A/GpL16-k0 (homodimerized antibody, Ho Ab) (antibody, human IgG1, kappa)
heavy: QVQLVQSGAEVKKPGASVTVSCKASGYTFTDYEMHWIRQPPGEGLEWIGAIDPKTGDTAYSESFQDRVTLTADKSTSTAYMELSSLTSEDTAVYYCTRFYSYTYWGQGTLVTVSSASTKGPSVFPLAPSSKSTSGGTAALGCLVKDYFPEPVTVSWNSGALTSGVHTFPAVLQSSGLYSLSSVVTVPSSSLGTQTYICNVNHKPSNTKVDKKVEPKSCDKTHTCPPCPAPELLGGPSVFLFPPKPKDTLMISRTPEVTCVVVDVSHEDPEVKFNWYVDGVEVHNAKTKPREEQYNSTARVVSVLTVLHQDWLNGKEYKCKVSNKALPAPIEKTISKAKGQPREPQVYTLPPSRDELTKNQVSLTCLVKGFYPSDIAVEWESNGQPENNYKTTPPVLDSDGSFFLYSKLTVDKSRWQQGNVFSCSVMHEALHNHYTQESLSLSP
light: DIVMTQSPLSLPVTPGEPASISCQASESLVHSNRNTYLHWYLQKPGQSPQLLIYKVSNRFSGVPDRFSGSGSGTDFTLKISRVEAEDVGVYYCSQNTHVPPTFGQGTKVEIERTVAAPSVFIFPPSDEQLKSGTASVVCLLNNFYPREAKVQWKVDNALQSGNSQESVTEQDSKDSTYSLSSTLTLSKADYEKHKVYACEVTHQGLSSPVTKSFNRGEC
notes: as for B1
B7: GpH7-B3 variant Y296_20W/GpL16-k0 (homodimerized antibody, Ho Ab) (antibody, human IgG1, kappa)
heavy: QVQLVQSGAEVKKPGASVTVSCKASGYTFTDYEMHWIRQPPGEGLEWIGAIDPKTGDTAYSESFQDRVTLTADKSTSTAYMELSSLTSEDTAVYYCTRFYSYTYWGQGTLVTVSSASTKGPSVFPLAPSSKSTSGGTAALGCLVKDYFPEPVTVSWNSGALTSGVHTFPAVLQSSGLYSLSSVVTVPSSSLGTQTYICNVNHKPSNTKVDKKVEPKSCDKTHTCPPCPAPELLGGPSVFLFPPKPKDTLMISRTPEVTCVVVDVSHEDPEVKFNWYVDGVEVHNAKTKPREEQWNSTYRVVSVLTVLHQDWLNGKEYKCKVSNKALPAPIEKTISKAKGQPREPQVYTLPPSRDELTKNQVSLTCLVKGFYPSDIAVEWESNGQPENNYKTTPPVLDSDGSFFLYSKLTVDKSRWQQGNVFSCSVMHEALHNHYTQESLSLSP
light: DIVMTQSPLSLPVTPGEPASISCQASESLVHSNRNTYLHWYLQKPGQSPQLLIYKVSNRFSGVPDRFSGSGSGTDFTLKISRVEAEDVGVYYCSQNTHVPPTFGQGTKVEIERTVAAPSVFIFPPSDEQLKSGTASVVCLLNNFYPREAKVQWKVDNALQSGNSQESVTEQDSKDSTYSLSSTLTLSKADYEKHKVYACEVTHQGLSSPVTKSFNRGEC
notes: as for B1
B8: GpH7-B3 variant Y300_03V/GpL16-k0 (homodimerized antibody, Ho Ab) (antibody, human IgG1, kappa)
heavy: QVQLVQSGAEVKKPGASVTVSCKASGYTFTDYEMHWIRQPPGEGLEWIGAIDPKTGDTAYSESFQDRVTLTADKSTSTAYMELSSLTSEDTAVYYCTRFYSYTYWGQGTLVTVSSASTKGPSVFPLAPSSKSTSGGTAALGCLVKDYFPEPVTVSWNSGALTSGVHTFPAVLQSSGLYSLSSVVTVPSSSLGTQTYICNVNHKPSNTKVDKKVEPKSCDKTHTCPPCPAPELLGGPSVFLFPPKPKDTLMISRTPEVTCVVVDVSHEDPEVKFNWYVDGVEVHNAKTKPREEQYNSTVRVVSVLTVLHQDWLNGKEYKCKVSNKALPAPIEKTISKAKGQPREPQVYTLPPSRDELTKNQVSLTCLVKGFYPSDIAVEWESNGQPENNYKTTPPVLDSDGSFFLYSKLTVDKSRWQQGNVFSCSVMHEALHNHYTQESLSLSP
light: DIVMTQSPLSLPVTPGEPASISCQASESLVHSNRNTYLHWYLQKPGQSPQLLIYKVSNRFSGVPDRFSGSGSGTDFTLKISRVEAEDVGVYYCSQNTHVPPTFGQGTKVEIERTVAAPSVFIFPPSDEQLKSGTASVVCLLNNFYPREAKVQWKVDNALQSGNSQESVTEQDSKDSTYSLSSTLTLSKADYEKHKVYACEVTHQGLSSPVTKSFNRGEC
notes: as for B1
B9: GpH7-B3 variant Y300_10E/GpL16-k0 (homodimerized antibody, Ho Ab) (antibody, human IgG1, kappa)
heavy: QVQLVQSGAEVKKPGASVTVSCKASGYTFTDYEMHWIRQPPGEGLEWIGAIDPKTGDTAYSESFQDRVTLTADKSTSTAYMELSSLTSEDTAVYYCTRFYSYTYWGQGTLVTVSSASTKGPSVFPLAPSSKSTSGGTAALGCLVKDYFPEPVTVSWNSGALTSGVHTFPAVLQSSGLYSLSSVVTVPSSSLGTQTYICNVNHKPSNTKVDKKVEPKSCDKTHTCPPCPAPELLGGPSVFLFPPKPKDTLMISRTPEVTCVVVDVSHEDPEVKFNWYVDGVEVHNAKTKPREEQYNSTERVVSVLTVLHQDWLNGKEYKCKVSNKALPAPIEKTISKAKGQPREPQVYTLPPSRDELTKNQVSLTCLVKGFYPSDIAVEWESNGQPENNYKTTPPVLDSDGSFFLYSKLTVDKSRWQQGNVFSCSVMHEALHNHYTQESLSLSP
light: DIVMTQSPLSLPVTPGEPASISCQASESLVHSNRNTYLHWYLQKPGQSPQLLIYKVSNRFSGVPDRFSGSGSGTDFTLKISRVEAEDVGVYYCSQNTHVPPTFGQGTKVEIERTVAAPSVFIFPPSDEQLKSGTASVVCLLNNFYPREAKVQWKVDNALQSGNSQESVTEQDSKDSTYSLSSTLTLSKADYEKHKVYACEVTHQGLSSPVTKSFNRGEC
notes: as for B1
B10: GpH7-B3 variant Y300_11K/GpL16-k0 (homodimerized antibody, Ho Ab) (antibody, human IgG1, kappa)
heavy: not shown
light: DIVMTQSPLSLPVTPGEPASISCQASESLVHSNRNTYLHWYLQKPGQSPQLLIYKVSNRFSGVPDRFSGSGSGTDFTLKISRVEAEDVGVYYCSQNTHVPPTFGQGTKVEIERTVAAPSVFIFPPSDEQLKSGTASVVCLLNNFYPREAKVQWKVDNALQSGNSQESVTEQDSKDSTYSLSSTLTLSKADYEKHKVYACEVTHQGLSSPVTKSFNRGEC
notes: as for B1
B11: GpH7-B3 variant Y300_09D/GpL16-k0 (homodimerized antibody, Ho Ab) (antibody, human IgG1, kappa)
heavy: not shown
light: DIVMTQSPLSLPVTPGEPASISCQASESLVHSNRNTYLHWYLQKPGQSPQLLIYKVSNRFSGVPDRFSGSGSGTDFTLKISRVEAEDVGVYYCSQNTHVPPTFGQGTKVEIERTVAAPSVFIFPPSDEQLKSGTASVVCLLNNFYPREAKVQWKVDNALQSGNSQESVTEQDSKDSTYSLSSTLTLSKADYEKHKVYACEVTHQGLSSPVTKSFNRGEC
notes: as for B1
B12: GpH7-B3 variant Y300_08L/GpL16-k0 (homodimerized antibody, Ho Ab) (antibody, human IgG1, kappa)
heavy: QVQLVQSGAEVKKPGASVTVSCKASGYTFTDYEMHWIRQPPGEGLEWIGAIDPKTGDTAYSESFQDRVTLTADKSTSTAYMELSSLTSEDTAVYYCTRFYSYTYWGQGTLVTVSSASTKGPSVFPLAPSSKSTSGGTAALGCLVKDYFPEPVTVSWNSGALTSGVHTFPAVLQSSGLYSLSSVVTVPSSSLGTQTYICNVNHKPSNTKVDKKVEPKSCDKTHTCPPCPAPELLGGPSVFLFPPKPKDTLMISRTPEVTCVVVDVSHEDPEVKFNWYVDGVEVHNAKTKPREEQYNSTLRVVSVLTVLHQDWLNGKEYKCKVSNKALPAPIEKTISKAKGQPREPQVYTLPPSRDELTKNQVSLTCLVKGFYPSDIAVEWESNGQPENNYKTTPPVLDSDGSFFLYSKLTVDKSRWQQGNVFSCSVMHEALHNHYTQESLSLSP
light: DIVMTQSPLSLPVTPGEPASISCQASESLVHSNRNTYLHWYLQKPGQSPQLLIYKVSNRFSGVPDRFSGSGSGTDFTLKISRVEAEDVGVYYCSQNTHVPPTFGQGTKVEIERTVAAPSVFIFPPSDEQLKSGTASVVCLLNNFYPREAKVQWKVDNALQSGNSQESVTEQDSKDSTYSLSSTLTLSKADYEKHKVYACEVTHQGLSSPVTKSFNRGEC
notes: as for B1
B13: GpH7-B3 variant Y300_20W/GpL16-k0 (homodimerized antibody, Ho Ab) (antibody, human IgG1, kappa)
heavy: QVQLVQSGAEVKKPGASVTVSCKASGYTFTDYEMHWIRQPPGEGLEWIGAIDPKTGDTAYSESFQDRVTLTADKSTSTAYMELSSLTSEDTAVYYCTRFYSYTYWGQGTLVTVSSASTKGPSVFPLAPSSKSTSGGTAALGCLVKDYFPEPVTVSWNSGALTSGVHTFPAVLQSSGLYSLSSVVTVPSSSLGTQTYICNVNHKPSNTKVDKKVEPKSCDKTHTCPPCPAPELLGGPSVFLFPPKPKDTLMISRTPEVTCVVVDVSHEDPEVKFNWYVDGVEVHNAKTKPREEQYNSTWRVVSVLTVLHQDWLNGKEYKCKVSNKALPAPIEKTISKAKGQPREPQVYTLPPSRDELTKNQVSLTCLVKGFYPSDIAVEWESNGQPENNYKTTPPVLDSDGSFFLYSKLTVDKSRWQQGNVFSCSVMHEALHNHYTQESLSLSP
light: DIVMTQSPLSLPVTPGEPASISCQASESLVHSNRNTYLHWYLQKPGQSPQLLIYKVSNRFSGVPDRFSGSGSGTDFTLKISRVEAEDVGVYYCSQNTHVPPTFGQGTKVEIERTVAAPSVFIFPPSDEQLKSGTASVVCLLNNFYPREAKVQWKVDNALQSGNSQESVTEQDSKDSTYSLSSTLTLSKADYEKHKVYACEVTHQGLSSPVTKSFNRGEC
notes: as for B1
B14: GpH7-A5/GpH7-B3 variant Y300_01G/GpL16-k0 (heterodimerized antibody, He Ab) (antibody, human IgG1, kappa)
heavy 1: not shown
heavy 2: not shown
light: DIVMTQSPLSLPVTPGEPASISCQASESLVHSNRNTYLHWYLQKPGQSPQLLIYKVSNRFSGVPDRFSGSGSGTDFTLKISRVEAEDVGVYYCSQNTHVPPTFGQGTKVEIERTVAAPSVFIFPPSDEQLKSGTASVVCLLNNFYPREAKVQWKVDNALQSGNSQESVTEQDSKDSTYSLSSTLTLSKADYEKHKVYACEVTHQGLSSPVTKSFNRGEC
notes: Anti-glypican-3 IgG1; alteration only in the GpH7-B3 (K439E) chain; other H chain is GpH7-A5 (D356K/H435R)
B15: GpH7-A5/GpH7-B3 variant T335_18N/GpL16-k0 (heterodimerized antibody, He Ab) (antibody, human IgG1, kappa)
heavy 1: not shown
heavy 2: not shown
light: DIVMTQSPLSLPVTPGEPASISCQASESLVHSNRNTYLHWYLQKPGQSPQLLIYKVSNRFSGVPDRFSGSGSGTDFTLKISRVEAEDVGVYYCSQNTHVPPTFGQGTKVEIERTVAAPSVFIFPPSDEQLKSGTASVVCLLNNFYPREAKVQWKVDNALQSGNSQESVTEQDSKDSTYSLSSTLTLSKADYEKHKVYACEVTHQGLSSPVTKSFNRGEC
notes: as for B14
B16: GpH7-A5/GpH7-B3 variant T335_16H/GpL16-k0 (heterodimerized antibody, He Ab) (antibody, human IgG1, kappa)
heavy 1: not shown
heavy 2: not shown
light: DIVMTQSPLSLPVTPGEPASISCQASESLVHSNRNTYLHWYLQKPGQSPQLLIYKVSNRFSGVPDRFSGSGSGTDFTLKISRVEAEDVGVYYCSQNTHVPPTFGQGTKVEIERTVAAPSVFIFPPSDEQLKSGTASVVCLLNNFYPREAKVQWKVDNALQSGNSQESVTEQDSKDSTYSLSSTLTLSKADYEKHKVYACEVTHQGLSSPVTKSFNRGEC
notes: as for B14

The target of the first assay is T1, FcγRIa (human, UniProt P12314 16-292).
T1 construct: extracellular domain; Soluble extracellular domain with C-terminal His tag, expressed in FreeStyle293 cells; analyte in Biacore; also called FcgRI; CD64; not shown: His tag attached to the C terminus
T1 sequence (P12314 16-292): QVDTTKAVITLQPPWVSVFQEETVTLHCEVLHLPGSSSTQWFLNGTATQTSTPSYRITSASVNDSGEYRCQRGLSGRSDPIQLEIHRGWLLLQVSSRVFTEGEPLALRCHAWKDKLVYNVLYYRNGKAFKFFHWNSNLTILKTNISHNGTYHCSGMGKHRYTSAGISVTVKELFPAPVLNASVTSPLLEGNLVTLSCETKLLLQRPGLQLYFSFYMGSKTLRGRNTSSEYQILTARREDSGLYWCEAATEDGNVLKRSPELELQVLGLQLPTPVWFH
Put plainly: SPR (Biacore), antibody captured on antigen-peptide chip, FcγRIa as analyte; binding activity relative to control GpH7-B3/GpL16-k0 (HoCon Ab) x100. The procedure:
(§1) Analysis of interaction between objective antibody and the FcγR was carried out using Biacore T100 (GE Healthcare). HBS-EP+ (GE Healthcare) was used as the running buffer, and the measurement temperature was set to 25° C. Chips produced by immobilizing the antigen peptide by the amine coupling method to a Series S Sencor Chip CM5 (GE Healthcare), or alternatively, chips produced by allowing preliminarily biotinylated antigen peptides to interact with and immobilize onto a Series S Sensor Chip SA (certified) (GE Healthcare) were used. Antibodies of interest were captured onto an antigen peptide-immobilized chip, and allowed to interact to each FcγR diluted with running buffer. To regenerate and repeatedly use the chip, the antibodies captured on the chip were washed off by reacting 10 mM glycine-HCl, pH 1.5.
(In general: Surface plasmon resonance follows binding to a sensor surface in real time, without labels.)
As to B1, the Ho/Con_1a was 104 % of control (=100). The same measure, in the same setting: the same measure for B2: 111 % of control (=100); for B3: 110 % of control (=100); for B4: 110 % of control (=100). Still for that read-out and setting: the same measure for B5: 110 % of control (=100). Same read-out and setting: next, B6: 110 % of control (=100); B7: 106 % of control (=100); B8: 112 % of control (=100). Regarding B9, the Ho/Con_1a was 111 % of control (=100). Still for that read-out and setting: next, B10: 101 % of control (=100); B11: 111 % of control (=100); B12: 109 % of control (=100). Same read-out and setting: the same measure for B13: 110 % of control (=100).

For a further assay, the target named is T1, FcγRIa. Put plainly: SPR (Biacore), antibody captured on antigen-peptide chip, FcγRIa as analyte; binding activity relative to control GpH7-A5/GpH7-B3/GpL16-k0 (HeCon Ab) x100. Here is the method: as §1
With B14, the He/Con_1a is 116 % of control (=100). On the same count and under the same terms, next, B15: 106 % of control (=100); B16: 106 % of control (=100).
